Experimental data as given in the supplement of paper PMC12764529.
± gives the half width of the 95% confidence interval.

Assays:
[1] = folding stability dG unfold (combined trypsin and chymotrypsin); higher = more stable
How it was run: (§1)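 Unfolding free energy was derived, per protease or combined, by relating Bayesian-fitted K50 values from sequencing counts to a sequence-predicted unfolded-state K50 and a shared folded-state K50. The underlying digests exposed cysteine-free mini-proteins under 80 residues, in a PA-tagged cDNA display construct, to trypsin and chymotrypsin at 11 threefold-diluted concentrations and to a no-protease condition. A filter kept only designs with AlphaFold2 dimer inter-PAE above 15.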

[2] = folding stability dG unfold from chymotrypsin proteolysis; higher = more stable
How it was run: as §1

[3] = folding stability dG unfold from trypsin proteolysis; higher = more stable
How it was run: as §1

Sequence	folding stability dG unfold [1]	folding stability dG unfold [2]	folding stability dG unfold [3]
SAGGSAGGSMPVITVDPSIKEFKDEKGNKYLLTPVTVTLPNGVPVTVVYTTDPSTGKTTPATSGSAGGSAGG [r6_298_JUSTAS]	0.62 ± 0.1 kcal/mol	0.481 ± 0.12 kcal/mol	0.671 ± 0.059 kcal/mol
SAGGSAGGSAGGWIMVPIEIKVDLKWGPNGQHEIETVPILIIIRIPPPPVPEEQAEKNNGSAGGSAGGSAGG [r11_318_TrROS]	2.81 ± 0.19 kcal/mol	2.68 ± 0.07 kcal/mol	2.89 ± 0.15 kcal/mol
SAGGSAPESVKPPVVVVTLVLEFPDGRKLTIPVAHEELAEALEVALALPLALEHDTKLVKVEKANVSAGGSA [r15_140_TrMRF]	0.558 ± 0.15 kcal/mol	0.736 ± 0.16 kcal/mol	0.265 ± 0.12 kcal/mol
SAGGSAGGSDDDENQKENQKAKPIKLEPIVEITVPYPDGFSLTVPIWRWPDGGIGIELEIFPLGSAGGSAGG [r6_326_TrROS]	1.3 ± 0.37 kcal/mol	1.44 ± 0.045 kcal/mol	0.867 ± 0.071 kcal/mol
SLGPLVELAELFPDFEPLGVEEEPLEDGGRLLRVIGRIPEIGAYLLIEVRLPPGGGIESIRAEWVPEDELSA [r9_274_TrMRF]	3.95 ± 0.11 kcal/mol	4.28 ± 0.071 kcal/mol	3.4 ± 0.12 kcal/mol
SAGGSAGGPMSAEELARFLANEFHKKHGMPPGHRVKIPVKWRDPEDGNEQEVTIEIPIRMPKGDSAGGSAGG [r6_799_TrROS]	1.2 ± 0.16 kcal/mol	1.4 ± 0.083 kcal/mol	0.32 ± 0.17 kcal/mol
SAGGPYMEIQFPMPEDQVRPALEKAADEWGMEVKEINYHPNNGMVTITVNDNMPPNRIRKAIEKVLKSAGGS [r8_338_TrROS]	-0.181 ± 0.15 kcal/mol	0.0859 ± 0.09 kcal/mol	-0.784 ± 0.4 kcal/mol
SAMVYEFPFETEEEAREKAREVLLEKLGASPEEEKVELDIEIEIREDPETGKKLATVTVPKVTVSPKKSSAG [r14_467_JUSTAS]	0.318 ± 0.086 kcal/mol	0.411 ± 0.099 kcal/mol	0.0292 ± 0.11 kcal/mol
SAGDPDRPVVVVIHYVDPETGEPRVEVFPADRIERIEVSPDGVLRIHLPAYGLEIDFPLDVVDHVDIASAGG [r19_416_TrMRF]	2.12 ± 0.027 kcal/mol	2.17 ± 0.044 kcal/mol	1.99 ± 0.064 kcal/mol
SAGGSAGGSADGNKPPEIKINLEVERHPNGMVEITATLHWPGGKEFPVRIMYNPDKIFIEISAGGSAGGSAG [r3_259_TrROS]	3.19 ± 0.14 kcal/mol	3.4 ± 0.16 kcal/mol	2.95 ± 0.31 kcal/mol
SAGGSAGGSAGFHIDVEVHRDDEGYVKVRVKMYMYNPDPGEPMGSFEMTIWIPPEDADKLSAGGSAGGSAGG [r11_575_TrROS]	3.7 ± 0.098 kcal/mol	3.9 ± 0.056 kcal/mol	3.33 ± 0.14 kcal/mol
SAGGDPNTARVVVLTGHPDVITPEQIRTLLENLGADEIKSVEVFTTPTSRVVRFVDSNGAPTVIFVPSAGGS [r8_86_TrMRF]	1.88 ± 0.072 kcal/mol	1.99 ± 0.032 kcal/mol	1.8 ± 0.038 kcal/mol
SPIVKVRLRIELPDGKVLELELDVPLPLIKEALSKLIGEKYKVKIVKIDPIDPEKLKPGSTIEITLKAEPSA [r9_803_TrMRF]	4.59 ± 0.2 kcal/mol	4.76 ± 0.14 kcal/mol	3.72 ± 0.28 kcal/mol
SAGGDWMLVIEIEIEGQPTPDGQIKVEISIEIELVRPPPPPITPWDRMAEEARDKNPNIPPDDPEAMTSAGG [r13_136_TrROS]	1.93 ± 0.2 kcal/mol	1.7 ± 0.095 kcal/mol	2.12 ± 0.11 kcal/mol
SAGGSAGGSAGMPPPVVVEPKRTSVVPESGLVIIPVTVFNPANGKATLTTYLYDPATGKLVLSAGGSAGGSA [r18_228_JUSTAS]	1.72 ± 0.12 kcal/mol	2.17 ± 0.058 kcal/mol	0.734 ± 0.17 kcal/mol
SAGGSAGGSAGGLWLTFNFRLTFFNPDGQAMEIEIPIEIRIPPPPVTVPDPDGEEYKYDSAGGSAGGSAGGS [r10_330_TrROS]	2.87 ± 0.18 kcal/mol	3 ± 0.069 kcal/mol	2.39 ± 0.07 kcal/mol
SAGGSAGGSSSVTPVPETTLVTLTPPDGSPPVLGTVFPATGTMLLFYPDSVLLLPLGPGTTLFSAGGSAGGS [r12_536_JUSTAS]	0.82 ± 0.079 kcal/mol	0.503 ± 0.08 kcal/mol	0.888 ± 0.034 kcal/mol
SAGGSAGGTISFPNATATITVEENSVTITVTNADGQPTTFTIPLPIPKAKPFTLPDGTKLYLIASAGGSAGG [r6_806_TrMRF]	2.31 ± 0.21 kcal/mol	2.31 ± 0.16 kcal/mol	1.94 ± 0.083 kcal/mol
KKTYTAEEIRKLAEKLGLEVPEGDLEIKVVFKDNKKTYTIKPGEEYTLEEILEKLKKEKPNIVKIEIKKKPS [r1_135_TrROS_Hall]	1.99 ± 0.27 kcal/mol	2.31 ± 0.034 kcal/mol	1.32 ± 0.18 kcal/mol
SMKILNDPNIKKVIPVFLMLMSPEEFKKLAEKLANGIKKELEEKGFPIPKDIEIKIIPFKSPEELKKALKSA [r9_204_TrMRF]	1.93 ± 0.14 kcal/mol	2.31 ± 0.11 kcal/mol	1.29 ± 0.039 kcal/mol
SAFRFPPGQTIMIKIEWRNPGNGKKRKWSIPIRVDPDKGRVITLDMLKSFLRKWGFNPEDVKIEDITVMSAG [r14_93_TrROS]	1.81 ± 0.041 kcal/mol	1.31 ± 0.069 kcal/mol	2.145 ± 0.013 kcal/mol
